Where “and” joins values, the source holds several entries; their conditions need not be identical. Equal entries are not always repeated.

Our source for the fold increase of band intensity over the GST control values is article PMC3020915.

The target in the assay is GST-Rif Q75L (UniProt Q9HBH0). The assay can be described thus: pull-down.

B1: MBP-NtΔBD (mDia2 91-528) (domain or fragment)
chain: NNPKALPESEVLKLFEKMMEDMNLNEDKKAPLREKDFGIKKEMVMQYINTASKTGSLRSSRQISPQEFLHELKMGYTDERLFTYLESLRVSLTSHPVSWVQSFGHEGLGLLLDILEKLINGQIQEKVVKKTQHKVIQCLRALMNTQYGLERIMSDKRSLSLLAKAMDPRQPAMMADVVKLLSAVCIVGEESILEEVLEALTSAGEERKIDRFFSIVEGLRHNSVNLQVACMQLINALVTSPDDLDFRLHLRNEFMRCGLKEILPNLKGIKNDGLDIQLKVFDEHKEEDLSEFFHRLEDIRAELDEASDVYSMLWDTVKETRAEGHFLSILQHLLLIRNDRFIREQYFKLIDECVSQIVLHRDGTDPDFTYRKRLDLDLSQFVDVCIDQAKLDEWEEKASEHCKKFEKECTDHQETQAQLQKREAKINELQAELQAFKS
For B1, the fold increase of band intensity over the GST control was 6 fold and 9.2 fold.

B2: MBP-Nt (mDia2 N-terminus, 1-528) (domain or fragment)
chain: MERHRARALGRDSKSSRRKGLQSAPPAGPYEPGEKRPKLHLNIRTLTDDMLDKFASIRIPGSKKERPPLPHLKTVSGISDSSSLSSETMENNPKALPESEVLKLFEKMMEDMNLNEDKKAPLREKDFGIKKEMVMQYINTASKTGSLRSSRQISPQEFLHELKMGYTDERLFTYLESLRVSLTSHPVSWVQSFGHEGLGLLLDILEKLINGQIQEKVVKKTQHKVIQCLRALMNTQYGLERIMSDKRSLSLLAKAMDPRQPAMMADVVKLLSAVCIVGEESILEEVLEALTSAGEERKIDRFFSIVEGLRHNSVNLQVACMQLINALVTSPDDLDFRLHLRNEFMRCGLKEILPNLKGIKNDGLDIQLKVFDEHKEEDLSEFFHRLEDIRAELDEASDVYSMLWDTVKETRAEGHFLSILQHLLLIRNDRFIREQYFKLIDECVSQIVLHRDGTDPDFTYRKRLDLDLSQFVDVCIDQAKLDEWEEKASEHCKKFEKECTDHQETQAQLQKREAKINELQAELQAFKS
Consider B2, for which the fold increase of band intensity over the GST control was 2.4 fold and 3.8 fold.
